# Results: patent US7402314B2, “In vivo activation of tumor-specific cytotoxic T cells” (The Scripps Research Institute, priority 1995, dated 2008)
# Target: A2.1/K^b (UniProt P01901+P04439, D140Y/D185E/D98H/E176V/G131W/I119V/I121R/I166T/N151K/N90K/Q86G/Q94H/R138H/R169H)
# Type: binding, human-mouse chimeric
Sequence,inhibition of binding of the influenza A-derived peptide to A2.1/K^b by Her-2/Neu-derived peptides,binding of test peptide to A2.1/K^b (percent specific lysis of EA2/K^b targets by influenza A-specific CTL)
ILLVVVLGV [Peptide H9],binding at the highest efficiency,–
"ILKEPVHGV [HIV-1 RT 476-484, reference compound]",–,efficiently bound to A2.1/K^b
